# Measurements taken from article PMC5790014, “Type IX secretion system PorM and gliding machinery GldM form arches spanning the periplasmic space” (Nature Communications, 2018).
# What was measured:
# [1] = target: the molecule itself; test: crystal structure; PorMp224; 0.02 M sodium acetate pH 4.8-5.8, 0.2 M zinc acetate, 15-25% (w/v) PEG3350; 2.85 Å
# [2] = target: the molecule itself; test: crystal structure; PorMp315/nb130, 1/1 complex at 10 mg/mL; 0.2 M ammonium citrate tribasic pH 7.0, 20% (w/v) PEG3350; 2.1 Å
# [3] = target: T1, PorMpNt (N-terminal domain D1 of the PorM periplasmic domain) (Porphyromonas gingivalis (sequence …)); test: crystal structure; PorMNt/nb01, 1/1 complex at 10 mg/mL; 0.1 M Hepes pH 7.5, 0.2 M NaCl, 25% (w/v) PEG3350; 2.4 Å; settings: both partners purified
# T1 construct: PorM, Porphyromonas gingivalis, GI 188595218, N-terminal domain D1; residues 30-212 by the results, residues 44-217 by the methods; the first helix (residues 30-69) is missing in the crystal, probably cleaved during crystallization; also called PorMNt
# [4] = target: the molecule itself; test: crystal structure; GldMp; sitting-drop vapor diffusion at 293K; 0.1 M Hepes pH 7-8, 26-46% (w/v) PEG 600; 2 Å
# [5] = target: T2, PorMp315 (PorM periplasmic fragment, domains D3 and D4 in the crystal) (Porphyromonas gingivalis, UniProt B2RLE8); test: crystal structure; PorMp315/nb130, 1/1 complex at 10 mg/mL; 0.2 M ammonium citrate tribasic pH 7.0, 20% (w/v) PEG3350; 2.1 Å; settings: both partners purified
# T2 construct: PorM, Porphyromonas gingivalis, GI 188595218; cloned as residues 224-516, domain D2 was cleaved by a protease during crystallization, the structure spans residues 315-516; Construct cloned as 224-516 (pLIC03); the crystallised species is 315-516
binder,measurement,setting,value
"PorMp224 (PorM periplasmic fragment, residues 224-516) (domain or fragment, PorM, Porphyromonas gingivalis, GI 188595218, tryptic fragment of the periplasmic domain, residues 224-516 (domains D2-D4); source: trypsin cleavage of PorMp (made in Rosetta E. coli cells), fragment purified) RVNSITAQVIPQSQIVMSGDTYKANIVLSSVDTTQRPDVFVNGKLLSPENMGLFTATAGAPGTYPVKGYIEMMGNDGVKIRRDFESEYFVTEPMASVAPTMMNVLYAGIDNPINIAVPGVAQQNVSATINNGTLTRRGNLWIARPTKVGSEAIISVTAQSGGRTIQMAKTTLRVRALPDPLPYIEYKDVQGNTKRFKGGRLGKREILAAGGIKAALDDDLLEVNYTVVKFQLVFYDSMGNSIPEVSDGASFSERQKRQIQNLGKGKRFYVTEVIARGPDGIERKIPAIEVIVN",binding result,[1],binds
"PorMp315 (PorM periplasmic fragment, domains D3 and D4 in the crystal) (domain or fragment, Porphyromonas gingivalis, UniProt B2RLE8 315-516, looked up, PorM, Porphyromonas gingivalis, GI 188595218; cloned as residues 224-516, domain D2 was cleaved by a protease during crystallization, the structure spans residues 315-516; Construct cloned as 224-516 (pLIC03); the crystallised species is 315-516) EPMASVAPTMMNVLYAGIDNPINIAVPGVAQQNVSATINNGTLTRRGNLWIARPTKVGSEAIISVTAQSGGRTIQMAKTTLRVRALPDPLPYIEYKDVQGNTKRFKGGRLGKREILAAGGIKAALDDDLLEVNYTVVKFQLVFYDSMGNSIPEVSDGASFSERQKRQIQNLGKGKRFYVTEVIARGPDGIERKIPAIEVIVN",binding result,[2],binds
"nanobody nb01 (VHH, llama nanobody raised against PorMp; source: E. coli WK6, periplasmic fraction, purified (Ni-NTA, Superdex 75)) VHH: DVQLVESGGGLVQAGGSLRVSCAASGRTFSSYSMGWFRQAPGKEREFVAAISRSDNSTYYADSVKGRFTISRDSAKNTVYLQMNSLKPEDTAVYYCAATPYGSRYYLRELREYDYWGQGTQVTVSS",binding result,[3],binds
"GldM periplasmic domain (GldMp) (domain or fragment, Flavobacterium johnsoniae, UniProt Q5EGM3 36-513, looked up, GldM, Flavobacterium johnsoniae (ATCC17061), GI 58531935, periplasmic domain, residues 36-513; Cloned into pLIC03 (a pET28a+ derivative); A SeMet derivative was used for phasing) FGLMNEKFEAANTSSVTTNESLLTSLDQKAAEAKGEFAKAAETAHKVQAASKEFYDYIGTLKTQAVKGFEVDKETGKMPYEAMDRGDNIDDWFTGDGYTKKGNEIIAKIEKYKSDIKAALGTDKKYAGIISEVEKKFDVSDVKNKEGIKEKYLAYHFKGFPAIASAAKLSAWQNDVKKTEADVYNSALGKAAVAAASYSNYQAIVVLDKNAYFQGEKVTGKVVLGRYDENTKPTSFQGPGQIVNGQAVISLTAGGVGEQDINGQFTFLEDGKNIPLKFSGKYVVVPRPNSATISADKMNVVYRGVVNPISVSFAGVDANKIVASAPGLSSAGKPGKYNMSPGQGTEATISVTGTLPNGDKVTDKKTFRIKGIPGPTGTIRGEMGVVKGPKSNLEIATIGAKLLDFDFEVGLDVVGFNMKIAGQPTVVVTGNKMNAQCKSVLARAGKGDQVTISEIKTKLVGAGSYLLPRTAPVIYEIQ",stoichiometry N,[4],2
"nanobody nb130 (VHH, llama nanobody raised against PorMp; source: E. coli WK6, periplasmic fraction, purified (Ni-NTA, Superdex 75)) VHH: QVQLVESGGGLVQAGGSLRLSCAASGRTFSSYVMGWFRQAPGKEREFVTAISWSGGSIHYADSVKGRFTISRDNAKNTVYLQMNSLKPEDTAVYTCVAGFAGYGSFTSRSARDSDKYDYWGQGTKVTVSS",binding result,[5],binds
